Test [1] addresses T1, ERα (Homo sapiens, UniProt P03372).
T1 construct: plus VP16 fused to the indicated full length receptors; expressed in transfected cells; host or cells: CV-1
T1 sequence (P03372 1-595): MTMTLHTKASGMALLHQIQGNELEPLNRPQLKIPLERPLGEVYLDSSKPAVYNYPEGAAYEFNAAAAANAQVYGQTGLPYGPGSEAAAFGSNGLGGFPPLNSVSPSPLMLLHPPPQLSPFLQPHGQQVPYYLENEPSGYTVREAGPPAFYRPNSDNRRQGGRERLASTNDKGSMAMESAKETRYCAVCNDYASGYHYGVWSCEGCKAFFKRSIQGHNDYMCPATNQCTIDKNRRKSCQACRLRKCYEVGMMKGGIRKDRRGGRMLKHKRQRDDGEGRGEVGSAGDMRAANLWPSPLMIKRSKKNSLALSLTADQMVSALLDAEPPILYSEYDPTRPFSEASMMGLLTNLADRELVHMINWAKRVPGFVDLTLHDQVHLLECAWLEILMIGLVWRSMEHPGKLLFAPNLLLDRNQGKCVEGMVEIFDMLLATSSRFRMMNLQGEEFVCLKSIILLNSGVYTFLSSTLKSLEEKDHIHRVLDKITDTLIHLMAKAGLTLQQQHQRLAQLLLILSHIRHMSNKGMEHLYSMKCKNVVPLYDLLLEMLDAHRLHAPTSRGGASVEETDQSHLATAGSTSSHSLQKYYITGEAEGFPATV
Put plainly: Mammalian two-hybrid assay with VP16 full length receptor: ERα. The test is classed as cell-based. The note with it: 1 μM estradiol. Here is the method: (§1) FIG. 6C1-3 illustrate the association of STAMP with assorted steroid/nuclear receptors, including glucocorticoid receptors (GRs), progesterone receptors (PRs), androgen receptors (ARs), estrogen receptors (ER α or β), PPARγ2 receptors, thyroid receptor beta (TR), and retinoid (α) receptors (RAR α or RXR α). Triplicate samples of CV-1 cells were transfected (as described for FIG. 6B) with GAL, or GAL fused to TIF2.4 or STAMP834C, plus VP16 fused to the indicated full length receptors and incubated with the appropriate steroid (1 μM Dex, 20 nM R5020, 1 nM R1881, 0.1 μM triiodothyronine, or 1 μM estradiol, roziglitazone, or 9-cis-retinoic acid). The average relative luciferase activities of 2-3 experiments±S.E.M. were then plotted. FIG. 6C1 illustrates the effects of STAMP association upon GR, PR and AR induced expression. FIG. 6C2 illustrates the effects of STAMP association upon ERα, ERβ and PPARγ2 induced expression. FIG. 6C3 illustrates the effects of STAMP association upon TR, RARα and RXRα induced expression.
(§2) These assays were conducted as described (He et al., 2002). […]

The target in test [2] is T2, PRs (B-form) (Homo sapiens, UniProt P06401).
T2 construct: expressed in transfected cells; host or cells: CV-1
T2 sequence (P06401 1-933): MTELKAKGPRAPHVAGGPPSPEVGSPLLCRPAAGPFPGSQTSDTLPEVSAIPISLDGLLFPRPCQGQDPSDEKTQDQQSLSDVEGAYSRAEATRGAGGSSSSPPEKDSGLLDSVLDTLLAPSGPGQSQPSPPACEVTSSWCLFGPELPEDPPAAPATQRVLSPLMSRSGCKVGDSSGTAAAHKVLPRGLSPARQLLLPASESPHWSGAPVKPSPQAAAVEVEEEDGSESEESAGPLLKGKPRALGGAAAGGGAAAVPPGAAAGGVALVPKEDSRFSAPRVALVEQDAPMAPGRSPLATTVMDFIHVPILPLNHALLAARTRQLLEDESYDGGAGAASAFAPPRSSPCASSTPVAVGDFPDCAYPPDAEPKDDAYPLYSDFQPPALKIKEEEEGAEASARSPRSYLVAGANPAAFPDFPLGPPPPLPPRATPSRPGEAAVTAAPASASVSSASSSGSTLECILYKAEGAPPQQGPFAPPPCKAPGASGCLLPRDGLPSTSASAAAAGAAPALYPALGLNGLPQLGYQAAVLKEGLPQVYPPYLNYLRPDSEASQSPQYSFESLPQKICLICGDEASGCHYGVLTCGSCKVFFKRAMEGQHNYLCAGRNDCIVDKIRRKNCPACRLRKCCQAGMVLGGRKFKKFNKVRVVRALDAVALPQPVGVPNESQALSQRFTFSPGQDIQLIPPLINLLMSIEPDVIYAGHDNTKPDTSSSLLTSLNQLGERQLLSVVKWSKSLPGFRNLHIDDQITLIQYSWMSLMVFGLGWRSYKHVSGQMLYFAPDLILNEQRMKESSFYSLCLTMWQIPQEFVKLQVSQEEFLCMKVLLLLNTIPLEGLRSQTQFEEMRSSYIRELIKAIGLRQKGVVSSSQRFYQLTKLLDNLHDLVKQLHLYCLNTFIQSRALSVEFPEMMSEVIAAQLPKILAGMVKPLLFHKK
T2 sequence (Q6EMB2 838-1281 F1267S partner limits assumed): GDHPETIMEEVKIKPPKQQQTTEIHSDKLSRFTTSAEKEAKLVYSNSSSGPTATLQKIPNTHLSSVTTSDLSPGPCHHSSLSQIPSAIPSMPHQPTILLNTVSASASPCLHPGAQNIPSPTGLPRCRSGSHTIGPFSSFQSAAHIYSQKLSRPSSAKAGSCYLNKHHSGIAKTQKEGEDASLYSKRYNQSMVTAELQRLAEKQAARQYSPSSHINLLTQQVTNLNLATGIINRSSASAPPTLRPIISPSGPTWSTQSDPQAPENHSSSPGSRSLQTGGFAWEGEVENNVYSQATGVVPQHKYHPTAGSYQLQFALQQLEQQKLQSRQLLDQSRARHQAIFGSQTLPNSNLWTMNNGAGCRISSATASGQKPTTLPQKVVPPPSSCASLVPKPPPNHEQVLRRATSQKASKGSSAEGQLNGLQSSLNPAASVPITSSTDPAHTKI
The test is described as follows: Mammalian two-hybrid assay with VP16 full length receptor: PR. The test is classed as cell-based. The settings on record: 20 nM R5020. Here is the method: as §1, §2

B1: STAMP834C: STAMP fragment amino acids 834-1277, receptor interaction domain (RID) (protein)
chain: T2 sequence (Q6EMB2 838-1281 F1267S partner limits assumed)
For B1, the “interaction with estrogen receptor α” value in test [1] is listed as “lack of interaction”. For the same molecule, the “interaction with agonist-bound, full length PR” value in test [2] is “interacted”.

Source of the values: patent publication US7867500B2, “Cofactor that modulates steroid receptor activities” (The United States of America as represented by the …, priority 2004, dated 2011).
